Target: ALK1 / BMPRII receptor pair (BMPR Type I receptor ALK1 and BMPR Type II receptor BMPRII) on cells (UniProt P37023)
Experiment: cell-based or functional assay

Sequence of ALK1 / BMPRII receptor pair (BMPR Type I receptor ALK1 and BMPR Type II receptor BMPRII) on cells (P37023 22-503 limits assumed, chain 1 of 2): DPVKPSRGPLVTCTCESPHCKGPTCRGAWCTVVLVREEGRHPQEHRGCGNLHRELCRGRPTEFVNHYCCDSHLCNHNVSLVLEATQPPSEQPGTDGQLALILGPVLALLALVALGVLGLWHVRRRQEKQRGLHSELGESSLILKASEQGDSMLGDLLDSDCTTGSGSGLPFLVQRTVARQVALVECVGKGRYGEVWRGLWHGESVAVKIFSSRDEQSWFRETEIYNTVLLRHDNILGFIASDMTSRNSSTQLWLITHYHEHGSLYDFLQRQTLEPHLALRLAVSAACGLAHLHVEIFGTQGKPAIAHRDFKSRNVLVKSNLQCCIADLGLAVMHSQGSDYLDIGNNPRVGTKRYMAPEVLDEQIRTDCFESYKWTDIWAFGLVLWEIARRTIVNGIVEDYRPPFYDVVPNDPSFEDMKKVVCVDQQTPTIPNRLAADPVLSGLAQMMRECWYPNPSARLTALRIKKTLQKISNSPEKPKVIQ
Sequence of ALK1 / BMPRII receptor pair (BMPR Type I receptor ALK1 and BMPR Type II receptor BMPRII) on cells (Q13873 27-1038 limits assumed, chain 2 of 2, further chain): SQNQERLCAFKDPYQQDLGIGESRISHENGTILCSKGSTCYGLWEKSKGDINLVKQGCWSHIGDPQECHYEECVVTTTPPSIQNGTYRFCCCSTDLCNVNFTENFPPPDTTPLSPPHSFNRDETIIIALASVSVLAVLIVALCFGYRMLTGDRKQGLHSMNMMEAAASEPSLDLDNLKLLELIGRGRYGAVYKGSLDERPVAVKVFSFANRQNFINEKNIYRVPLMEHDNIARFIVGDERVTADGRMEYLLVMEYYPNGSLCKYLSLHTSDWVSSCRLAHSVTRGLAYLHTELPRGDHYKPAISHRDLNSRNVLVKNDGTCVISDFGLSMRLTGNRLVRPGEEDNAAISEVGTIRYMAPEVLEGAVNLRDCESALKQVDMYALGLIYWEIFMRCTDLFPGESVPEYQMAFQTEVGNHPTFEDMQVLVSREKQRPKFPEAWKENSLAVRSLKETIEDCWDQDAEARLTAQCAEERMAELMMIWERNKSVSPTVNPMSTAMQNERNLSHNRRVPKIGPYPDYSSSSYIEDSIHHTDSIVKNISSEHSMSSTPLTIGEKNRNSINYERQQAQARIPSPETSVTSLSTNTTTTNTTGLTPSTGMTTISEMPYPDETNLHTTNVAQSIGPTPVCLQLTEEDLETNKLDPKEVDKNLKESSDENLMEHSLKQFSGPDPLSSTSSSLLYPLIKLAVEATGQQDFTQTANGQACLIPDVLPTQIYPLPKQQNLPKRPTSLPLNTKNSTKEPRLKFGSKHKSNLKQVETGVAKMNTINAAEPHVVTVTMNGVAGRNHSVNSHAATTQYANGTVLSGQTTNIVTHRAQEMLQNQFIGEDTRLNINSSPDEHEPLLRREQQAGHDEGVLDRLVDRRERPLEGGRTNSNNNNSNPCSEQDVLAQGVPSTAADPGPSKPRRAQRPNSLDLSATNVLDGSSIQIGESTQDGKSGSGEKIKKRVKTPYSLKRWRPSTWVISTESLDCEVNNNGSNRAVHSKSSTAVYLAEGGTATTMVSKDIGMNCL

B1: BMP10 (ligand, UniProt O95393 317-424, looked up)
chain: NAKGNYCKRTPLYIDFKEIGWDSWIIAPPGYEAYECRGVCNYPLAEHLTPTKHAIIQALVHLKNSQKASKACCVPTKLEPISILYLDKGVVTYKFKYEGMAVSECGCR
Agonist activity, % Emax BMP9: 97 % Emax BMP9 | Agonist activity, EC50: 0.1 nM | Agonist activity, EMAX (RLU): 2.57e+06 RLU

B2: BMP9 (ligand, UniProt Q9UK05 320-429, looked up)
chain: SAGAGSHCQKTSLRVNFEDIGWDSWIIAPKEYEAYECKGGCFFPLADDVTPTKHAIVQTLVHLKFPTKVGKACCVPTKLSPISVLYKDDMGVPTLKYHYEGMSVAECGCR
Agonist activity, % Emax BMP9: 100 % Emax BMP9 | Agonist activity, EC50: 0.02 nM | Agonist activity, EMAX (RLU): 2.64e+06 RLU | pSMAD1 ELISA in HUVEC, RLU 15 minutes, at 0 nM (baseline): 4.9 RLU | pSMAD1 ELISA in HUVEC, RLU 15 minutes, at 0.04 nM: 101 RLU | pSMAD1 ELISA in HUVEC, RLU 15 minutes, at 0.2 nM: 102 RLU | pSMAD1 ELISA in HUVEC, RLU 15 minutes, at 1 nM: 106 RLU | pSMAD1 ELISA in HUVEC, RLU 60 minutes, at 0 nM (baseline): 6.1 RLU | pSMAD1 ELISA in HUVEC, RLU 60 minutes, at 0.04 nM: 81.8 RLU | pSMAD1 ELISA in HUVEC, RLU 60 minutes, at 0.2 nM: 83.2 RLU | pSMAD1 ELISA in HUVEC, RLU 60 minutes, at 1 nM: 81.8 RLU

From patent US20240383990A1
